In paper PMC7801515:
Where “and” joins values, the source holds several entries; their conditions need not be identical. Equal values may be shown once. Read-outs that look alike come from different tables or passages of the source.

Experiments:
Test in all cases: SPR
[1] = molecular target: SARS-CoV-2 receptor-binding domain (RBD), residues Arg319 to Lys529 (SARS-CoV-2) (UniProt P0DTC2)
[2] = molecular target: SARS-CoV-2 receptor-binding domain (RBD), residues Arg319 to Lys529 (SARS-CoV-2) (UniProt P0DTC2); remark: listed apart in the source
[3] = molecular target: P2B-2F6 monoclonal antibody (human)

P2B-2F6 monoclonal antibody
Kd [1]: 19 nM and 13.8 nM and 14.1 nM
koff [1]: 0.102 s⁻¹ and 0.0911 s⁻¹

P2C-1F11 monoclonal antibody
Kd [2]: 1.1 nM and 2.67 nM and 1.38 nM
koff [2]: 0.00263 s⁻¹ and 0.00303 s⁻¹ and 0.00213 s⁻¹
Kd [1]: 2.4 nM

SARS-CoV-2 receptor-binding domain (RBD), residues Arg319 to Lys529 (from UniProt P0DTC2 319-529) (domain or fragment)
Kd [3]: 15.6 nM
